Measurements published in US20040146507A1.

Target: T1, rhesus CD11a (rhesus) (UniProt H9Z8N3)
T1 sequence: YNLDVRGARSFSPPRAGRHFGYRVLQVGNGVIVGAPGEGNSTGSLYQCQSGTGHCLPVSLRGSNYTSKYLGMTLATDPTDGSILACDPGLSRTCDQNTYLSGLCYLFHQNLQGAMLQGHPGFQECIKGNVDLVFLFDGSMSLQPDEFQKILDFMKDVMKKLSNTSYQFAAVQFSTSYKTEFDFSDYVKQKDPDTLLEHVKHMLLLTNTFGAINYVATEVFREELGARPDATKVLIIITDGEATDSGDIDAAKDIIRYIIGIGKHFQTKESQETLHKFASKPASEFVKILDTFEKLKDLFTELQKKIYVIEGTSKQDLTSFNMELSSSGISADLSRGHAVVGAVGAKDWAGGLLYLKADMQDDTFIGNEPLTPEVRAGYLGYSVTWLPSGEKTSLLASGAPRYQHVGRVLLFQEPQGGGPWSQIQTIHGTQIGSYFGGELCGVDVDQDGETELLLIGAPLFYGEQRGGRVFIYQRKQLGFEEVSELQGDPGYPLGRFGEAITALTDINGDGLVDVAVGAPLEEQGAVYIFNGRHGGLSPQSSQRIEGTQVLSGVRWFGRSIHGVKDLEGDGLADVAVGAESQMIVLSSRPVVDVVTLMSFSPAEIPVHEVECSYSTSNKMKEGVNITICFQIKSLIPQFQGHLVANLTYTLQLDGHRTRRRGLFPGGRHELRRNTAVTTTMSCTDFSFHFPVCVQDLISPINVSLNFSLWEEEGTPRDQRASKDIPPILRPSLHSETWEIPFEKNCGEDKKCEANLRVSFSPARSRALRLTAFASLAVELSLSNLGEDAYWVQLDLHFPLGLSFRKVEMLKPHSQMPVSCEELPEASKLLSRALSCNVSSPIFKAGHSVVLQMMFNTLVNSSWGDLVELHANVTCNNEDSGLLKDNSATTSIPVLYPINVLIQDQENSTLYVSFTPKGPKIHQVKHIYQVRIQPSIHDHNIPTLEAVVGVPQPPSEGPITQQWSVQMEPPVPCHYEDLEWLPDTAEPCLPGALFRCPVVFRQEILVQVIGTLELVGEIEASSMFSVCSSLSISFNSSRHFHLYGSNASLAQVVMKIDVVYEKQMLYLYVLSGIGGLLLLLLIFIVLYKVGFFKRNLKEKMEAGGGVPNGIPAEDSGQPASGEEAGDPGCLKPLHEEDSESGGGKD
Experiment: rhesus PBL binding

Var.EC50/HuIgG1 EC50: 13.3
B1: HuIgG1 mutant SerL52Ala (antibody, V domains shown)
VH: EVQLVESGGGLVQPGGSLRLSCAASGYSFTGHWMNWVRQAPGKGLEWVGMIHPSDSETRYNQKFKDRFTISVDKSKNTLYLQMNSLRAEDTAVYYCARGIYFYGTTYFDYWGQGTLVTVSS
VL: DIQMTQSPSSLSASVGDRVTITCRASKTISKYLAWYQQKPGKAPKLLIYSGATLQSGVPSRFSGSGSGTDFTLTISSLQPEDFATYYCQQHNEYPLTFGQGTKVEIKR
